According to publication doi:10.1101/2024.12.12.628227 (bioRxiv, 2024):

Biological target: human AXL Ig1 domain fused to human Fc (Homo sapiens, UniProt P30530)
Test: BLI

Binder | binding result
parental scFv-osmY fusion protein (tilvestamab scFv) (scFv, V domains shown) VH: EVQLVESGGGLVQPGGSLRLSCAASGYSFTDFYINWVRQAPGKGLEWVARIFPGGDNTYYNEKFKGRFTLSADTSKSTAYLQMNSLRAEDTAVYYCARRGLYYAMDYWGQGTLVTVSS VL: DIQMTQSPSSLSASVGDRVTITCRSSQSLVHSNGIPYLHWYQQKPGKAPKLLIYRVSNRFSGVPSRFSGSGSGTDFTLTISSLQPEDFATYYCSQGTHVPPTFGQGTKVEIK | binds
tilvestamab scFv-osmY I35A (scFv, V domains shown) VH: EVQLVESGGGLVQPGGSLRLSCAASGYSFTDFYANWVRQAPGKGLEWVARIFPGGDNTYYNEKFKGRFTLSADTSKSTAYLQMNSLRAEDTAVYYCARRGLYYAMDYWGQGTLVTVSS VL: DIQMTQSPSSLSASVGDRVTITCRSSQSLVHSNGIPYLHWYQQKPGKAPKLLIYRVSNRFSGVPSRFSGSGSGTDFTLTISSLQPEDFATYYCSQGTHVPPTFGQGTKVEIK | binds
tilvestamab scFv-osmY T31A (scFv, V domains shown) VH: EVQLVESGGGLVQPGGSLRLSCAASGYSFADFYINWVRQAPGKGLEWVARIFPGGDNTYYNEKFKGRFTLSADTSKSTAYLQMNSLRAEDTAVYYCARRGLYYAMDYWGQGTLVTVSS VL: DIQMTQSPSSLSASVGDRVTITCRSSQSLVHSNGIPYLHWYQQKPGKAPKLLIYRVSNRFSGVPSRFSGSGSGTDFTLTISSLQPEDFATYYCSQGTHVPPTFGQGTKVEIK | binds
tilvestamab scFv-osmY G101A (scFv, V domains shown) VH: EVQLVESGGGLVQPGGSLRLSCAASGYSFTDFYINWVRQAPGKGLEWVARIFPGGDNTYYNEKFKGRFTLSADTSKSTAYLQMNSLRAEDTAVYYCARRALYYAMDYWGQGTLVTVSS VL: DIQMTQSPSSLSASVGDRVTITCRSSQSLVHSNGIPYLHWYQQKPGKAPKLLIYRVSNRFSGVPSRFSGSGSGTDFTLTISSLQPEDFATYYCSQGTHVPPTFGQGTKVEIK | binds
tilvestamab scFv-osmY M106A (scFv, V domains shown) VH: EVQLVESGGGLVQPGGSLRLSCAASGYSFTDFYINWVRQAPGKGLEWVARIFPGGDNTYYNEKFKGRFTLSADTSKSTAYLQMNSLRAEDTAVYYCARRGLYYAADYWGQGTLVTVSS VL: DIQMTQSPSSLSASVGDRVTITCRSSQSLVHSNGIPYLHWYQQKPGKAPKLLIYRVSNRFSGVPSRFSGSGSGTDFTLTISSLQPEDFATYYCSQGTHVPPTFGQGTKVEIK | binds
tilvestamab scFv-osmY Y108A (scFv, V domains shown) VH: EVQLVESGGGLVQPGGSLRLSCAASGYSFTDFYINWVRQAPGKGLEWVARIFPGGDNTYYNEKFKGRFTLSADTSKSTAYLQMNSLRAEDTAVYYCARRGLYYAMDAWGQGTLVTVSS VL: DIQMTQSPSSLSASVGDRVTITCRSSQSLVHSNGIPYLHWYQQKPGKAPKLLIYRVSNRFSGVPSRFSGSGSGTDFTLTISSLQPEDFATYYCSQGTHVPPTFGQGTKVEIK | binds
tilvestamab scFv-osmY L102A (scFv, V domains shown) VH: EVQLVESGGGLVQPGGSLRLSCAASGYSFTDFYINWVRQAPGKGLEWVARIFPGGDNTYYNEKFKGRFTLSADTSKSTAYLQMNSLRAEDTAVYYCARRGAYYAMDYWGQGTLVTVSS VL: DIQMTQSPSSLSASVGDRVTITCRSSQSLVHSNGIPYLHWYQQKPGKAPKLLIYRVSNRFSGVPSRFSGSGSGTDFTLTISSLQPEDFATYYCSQGTHVPPTFGQGTKVEIK | binds
tilvestamab scFv-osmY L102S (scFv, V domains shown) VH: EVQLVESGGGLVQPGGSLRLSCAASGYSFTDFYINWVRQAPGKGLEWVARIFPGGDNTYYNEKFKGRFTLSADTSKSTAYLQMNSLRAEDTAVYYCARRGSYYAMDYWGQGTLVTVSS VL: DIQMTQSPSSLSASVGDRVTITCRSSQSLVHSNGIPYLHWYQQKPGKAPKLLIYRVSNRFSGVPSRFSGSGSGTDFTLTISSLQPEDFATYYCSQGTHVPPTFGQGTKVEIK | binds
tilvestamab scFv-osmY L102Y (scFv, V domains shown) VH: EVQLVESGGGLVQPGGSLRLSCAASGYSFTDFYINWVRQAPGKGLEWVARIFPGGDNTYYNEKFKGRFTLSADTSKSTAYLQMNSLRAEDTAVYYCARRGYYYAMDYWGQGTLVTVSS VL: DIQMTQSPSSLSASVGDRVTITCRSSQSLVHSNGIPYLHWYQQKPGKAPKLLIYRVSNRFSGVPSRFSGSGSGTDFTLTISSLQPEDFATYYCSQGTHVPPTFGQGTKVEIK | binds
tilvestamab scFv-osmY Y103A (scFv, V domains shown) VH: EVQLVESGGGLVQPGGSLRLSCAASGYSFTDFYINWVRQAPGKGLEWVARIFPGGDNTYYNEKFKGRFTLSADTSKSTAYLQMNSLRAEDTAVYYCARRGLAYAMDYWGQGTLVTVSS VL: DIQMTQSPSSLSASVGDRVTITCRSSQSLVHSNGIPYLHWYQQKPGKAPKLLIYRVSNRFSGVPSRFSGSGSGTDFTLTISSLQPEDFATYYCSQGTHVPPTFGQGTKVEIK | binds
tilvestamab scFv-osmY D32A (scFv, V domains shown) VH: EVQLVESGGGLVQPGGSLRLSCAASGYSFTAFYINWVRQAPGKGLEWVARIFPGGDNTYYNEKFKGRFTLSADTSKSTAYLQMNSLRAEDTAVYYCARRGLYYAMDYWGQGTLVTVSS VL: DIQMTQSPSSLSASVGDRVTITCRSSQSLVHSNGIPYLHWYQQKPGKAPKLLIYRVSNRFSGVPSRFSGSGSGTDFTLTISSLQPEDFATYYCSQGTHVPPTFGQGTKVEIK | binds
tilvestamab scFv-osmY Y103S (scFv, V domains shown) VH: EVQLVESGGGLVQPGGSLRLSCAASGYSFTDFYINWVRQAPGKGLEWVARIFPGGDNTYYNEKFKGRFTLSADTSKSTAYLQMNSLRAEDTAVYYCARRGLSYAMDYWGQGTLVTVSS VL: DIQMTQSPSSLSASVGDRVTITCRSSQSLVHSNGIPYLHWYQQKPGKAPKLLIYRVSNRFSGVPSRFSGSGSGTDFTLTISSLQPEDFATYYCSQGTHVPPTFGQGTKVEIK | binds
tilvestamab scFv-osmY L102T (scFv, V domains shown) VH: EVQLVESGGGLVQPGGSLRLSCAASGYSFTDFYINWVRQAPGKGLEWVARIFPGGDNTYYNEKFKGRFTLSADTSKSTAYLQMNSLRAEDTAVYYCARRGTYYAMDYWGQGTLVTVSS VL: DIQMTQSPSSLSASVGDRVTITCRSSQSLVHSNGIPYLHWYQQKPGKAPKLLIYRVSNRFSGVPSRFSGSGSGTDFTLTISSLQPEDFATYYCSQGTHVPPTFGQGTKVEIK | binds
tilvestamab scFv-osmY F33Y (scFv, V domains shown) VH: EVQLVESGGGLVQPGGSLRLSCAASGYSFTDYYINWVRQAPGKGLEWVARIFPGGDNTYYNEKFKGRFTLSADTSKSTAYLQMNSLRAEDTAVYYCARRGLYYAMDYWGQGTLVTVSS VL: DIQMTQSPSSLSASVGDRVTITCRSSQSLVHSNGIPYLHWYQQKPGKAPKLLIYRVSNRFSGVPSRFSGSGSGTDFTLTISSLQPEDFATYYCSQGTHVPPTFGQGTKVEIK | binds
tilvestamab scFv-osmY F33A (scFv, V domains shown) VH: EVQLVESGGGLVQPGGSLRLSCAASGYSFTDAYINWVRQAPGKGLEWVARIFPGGDNTYYNEKFKGRFTLSADTSKSTAYLQMNSLRAEDTAVYYCARRGLYYAMDYWGQGTLVTVSS VL: DIQMTQSPSSLSASVGDRVTITCRSSQSLVHSNGIPYLHWYQQKPGKAPKLLIYRVSNRFSGVPSRFSGSGSGTDFTLTISSLQPEDFATYYCSQGTHVPPTFGQGTKVEIK | binds
tilvestamab scFv-osmY G233A (scFv, V domains shown) VH: EVQLVESGGGLVQPGGSLRLSCAASGYSFTDFYINWVRQAPGKGLEWVARIFPGGDNTYYNEKFKGRFTLSADTSKSTAYLQMNSLRAEDTAVYYCARRGLYYAMDYWGQGTLVTVSS VL: DIQMTQSPSSLSASVGDRVTITCRSSQSLVHSNGIPYLHWYQQKPGKAPKLLIYRVSNRFSGVPSRFSGSGSGTDFTLTISSLQPEDFATYYCSQATHVPPTFGQGTKVEIK | binds
tilvestamab scFv-osmY P238A (scFv, V domains shown) VH: EVQLVESGGGLVQPGGSLRLSCAASGYSFTDFYINWVRQAPGKGLEWVARIFPGGDNTYYNEKFKGRFTLSADTSKSTAYLQMNSLRAEDTAVYYCARRGLYYAMDYWGQGTLVTVSS VL: DIQMTQSPSSLSASVGDRVTITCRSSQSLVHSNGIPYLHWYQQKPGKAPKLLIYRVSNRFSGVPSRFSGSGSGTDFTLTISSLQPEDFATYYCSQGTHVPATFGQGTKVEIK | binds
tilvestamab scFv-osmY F33S (scFv, V domains shown) VH: EVQLVESGGGLVQPGGSLRLSCAASGYSFTDSYINWVRQAPGKGLEWVARIFPGGDNTYYNEKFKGRFTLSADTSKSTAYLQMNSLRAEDTAVYYCARRGLYYAMDYWGQGTLVTVSS VL: DIQMTQSPSSLSASVGDRVTITCRSSQSLVHSNGIPYLHWYQQKPGKAPKLLIYRVSNRFSGVPSRFSGSGSGTDFTLTISSLQPEDFATYYCSQGTHVPPTFGQGTKVEIK | binds
tilvestamab scFv-osmY G233S (scFv, V domains shown) VH: EVQLVESGGGLVQPGGSLRLSCAASGYSFTDFYINWVRQAPGKGLEWVARIFPGGDNTYYNEKFKGRFTLSADTSKSTAYLQMNSLRAEDTAVYYCARRGLYYAMDYWGQGTLVTVSS VL: DIQMTQSPSSLSASVGDRVTITCRSSQSLVHSNGIPYLHWYQQKPGKAPKLLIYRVSNRFSGVPSRFSGSGSGTDFTLTISSLQPEDFATYYCSQSTHVPPTFGQGTKVEIK | binds
tilvestamab scFv-osmY F33T (scFv, V domains shown) VH: EVQLVESGGGLVQPGGSLRLSCAASGYSFTDTYINWVRQAPGKGLEWVARIFPGGDNTYYNEKFKGRFTLSADTSKSTAYLQMNSLRAEDTAVYYCARRGLYYAMDYWGQGTLVTVSS VL: DIQMTQSPSSLSASVGDRVTITCRSSQSLVHSNGIPYLHWYQQKPGKAPKLLIYRVSNRFSGVPSRFSGSGSGTDFTLTISSLQPEDFATYYCSQGTHVPPTFGQGTKVEIK | binds
